Measurements as given in patent publication US6753151B1, “Interactions of Ku polypeptides and applications thereof” (Kudos Pharmaceuticals Limited, priority 1999, dated 2004).

Tests used:
full length Ku80 = biological target: T1, full length Ku80 (Homo sapiens, UniProt P13010); assay: GST pull-down of Ku80 from biotinylated bacterial extract by GST-Ku70 derivatives; assay type: binding; details: GST-fusion on glutathione agarose beads, biotinylated bacterial extract containing Ku80, seven NETN washes, streptavidin-HRP blot
T1 construct: incubated with biotinylated bacterial cell extracts containing full length Ku80; made in house; host or cells: E. coli BL21 pLysS
Description: (§1) Full length Ku70 and Ku80 were cloned in frame with the glutathione binding domain of human glutathione S-transferase (GST) by sub-cloning into pGEX2TKP (a derivative of […] by Pharmacia). Deletion mutants of Ku70 and Ku80 were cloned by Pfu polymerase amplification and cloning into pGEX2TKP. Expression from all pGEX2TKP constructs was carried out in either DH5α or DS941 strains of E. coli. Bacterial cell extracts were produced by sonication in Phosphate-buffered saline (PBS; 138 mM NaCl, 3 mM KCl, 10 mM Phosphate buffer pH 7.4) containing 1% Triton-X100 (Sigma) and protease inhibitor tablets (Boehringer). GST-fusion proteins were purified by passing bacterial lysates over Glutathione Agarose beads (Pharmacia) and washing extensively in PBS containing 1% Triton-X100 and then in PBS alone. The beads/proteins were stored at −80° C. prior to use.
Ku70 and Ku80 were cloned into pET30a (Novagen) to generate a N-terminal hexa-Histidine tag and expressed at low levels in E. coli (BL21 pLysS). […]
(§2) In a complementary approach to the yeast 2-hybrid technique, the inventors used a “pull-down” assay to detect interactions between recombinant deletion derivatives of the two Ku subunits. […] Interacting proteins were detected by probing these western blots with streptavidin that was conjugated to horse radish peroxidase (HRP). […]

full length Ku70 = biological target: T2, full length Ku70 (Homo sapiens, UniProt P12956); assay: GST pull-down of Ku70 from biotinylated bacterial extract by GST-Ku80 derivatives; assay type: binding; details: GST-fusion on glutathione agarose beads; biotinylated bacterial extract containing Ku70; seven NETN washes; streptavidin-HRP blot
T2 construct: incubated with biotinylated bacterial cell extracts containing full length Ku70; made in house; host or cells: E. coli BL21 pLysS
Description: as §1, with “use. […]” for “use.”
as §2
The inventors tested a range of Ku80 deletion derivatives expressed as GST-fusions for their ability to interact with full-length Ku70. […]

T1 sequence (P13010 whole entry, the tested form may be a part): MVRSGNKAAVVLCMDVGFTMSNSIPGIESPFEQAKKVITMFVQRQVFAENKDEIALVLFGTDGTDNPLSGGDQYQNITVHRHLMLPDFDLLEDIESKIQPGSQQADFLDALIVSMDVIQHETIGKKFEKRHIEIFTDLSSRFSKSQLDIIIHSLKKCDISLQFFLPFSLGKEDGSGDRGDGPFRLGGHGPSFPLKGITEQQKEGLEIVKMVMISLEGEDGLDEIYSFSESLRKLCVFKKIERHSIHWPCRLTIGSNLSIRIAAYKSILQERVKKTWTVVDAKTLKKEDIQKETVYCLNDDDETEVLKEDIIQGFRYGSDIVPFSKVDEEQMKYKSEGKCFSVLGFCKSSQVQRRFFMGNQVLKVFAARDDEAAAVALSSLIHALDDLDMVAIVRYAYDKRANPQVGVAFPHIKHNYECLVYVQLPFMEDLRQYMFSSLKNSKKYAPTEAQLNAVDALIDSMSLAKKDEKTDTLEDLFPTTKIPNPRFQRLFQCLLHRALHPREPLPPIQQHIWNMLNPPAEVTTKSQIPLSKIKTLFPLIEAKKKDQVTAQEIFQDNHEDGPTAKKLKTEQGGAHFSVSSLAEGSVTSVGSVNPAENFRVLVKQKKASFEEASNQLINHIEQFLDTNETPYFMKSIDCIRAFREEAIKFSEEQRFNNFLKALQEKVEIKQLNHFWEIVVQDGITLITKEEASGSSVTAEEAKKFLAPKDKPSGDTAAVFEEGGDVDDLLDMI
T2 sequence (P12956 whole entry, the tested form may be a part): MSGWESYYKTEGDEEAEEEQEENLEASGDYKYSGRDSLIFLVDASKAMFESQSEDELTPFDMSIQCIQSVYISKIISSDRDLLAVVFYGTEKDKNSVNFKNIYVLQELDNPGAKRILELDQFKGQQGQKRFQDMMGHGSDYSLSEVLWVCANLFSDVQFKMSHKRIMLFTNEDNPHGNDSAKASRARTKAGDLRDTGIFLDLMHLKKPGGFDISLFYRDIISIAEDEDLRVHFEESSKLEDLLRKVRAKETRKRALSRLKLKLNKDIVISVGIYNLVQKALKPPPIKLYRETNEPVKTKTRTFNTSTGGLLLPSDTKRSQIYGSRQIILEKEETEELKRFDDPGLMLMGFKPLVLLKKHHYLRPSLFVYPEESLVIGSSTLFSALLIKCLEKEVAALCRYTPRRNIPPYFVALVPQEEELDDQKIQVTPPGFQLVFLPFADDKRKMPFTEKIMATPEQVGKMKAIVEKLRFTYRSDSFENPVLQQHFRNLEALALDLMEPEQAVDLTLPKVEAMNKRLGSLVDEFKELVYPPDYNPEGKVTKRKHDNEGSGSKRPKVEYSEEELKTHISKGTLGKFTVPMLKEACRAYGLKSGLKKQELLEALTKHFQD

| Substance | interaction with full-length Ku80 (full length Ku80) | interaction with full-length Ku80 (full length Ku80; listed as Full-length Ku70) | interaction with full-length Ku70 (full length Ku70) |
| --- | --- | --- | --- |
| GST-Ku70: full length human Ku70 fused to glutathione S-transferase, expressed in E. coli | only a single species is retained efficiently on the beads | binds to Ku80 efficiently |  |
| GST-Ku80: full length human Ku80 fused to glutathione S-transferase, expressed in E. coli |  |  | only a single species is retained efficiently on the beads |
